Measured values taken from patent publication US20250327089A1.

Target: target receptor on brush border membrane vesicles (BBMVs) from C. includens (Pseudoplusia includens (C. includens))

With “PtIP-65Aa polypeptide (Pteridophyta Insecticidal Protein-65Aa)” the EC50 was 14 nM.
